Among the data in patent publication US20100098706A1 are binding percentage (100% = total inhibition of 3G8 binding) values, retold here.

The experiment addresses human CD16 receptor (FcgammaRIIIa) (human) (UniProt P08637). The experiment in a line: flow cytometry on NK cells; competition with 3G8-PE; antibody at 50 µg/ml.

Sequence of human CD16 receptor (FcgammaRIIIa) (human) (P08637 17-254): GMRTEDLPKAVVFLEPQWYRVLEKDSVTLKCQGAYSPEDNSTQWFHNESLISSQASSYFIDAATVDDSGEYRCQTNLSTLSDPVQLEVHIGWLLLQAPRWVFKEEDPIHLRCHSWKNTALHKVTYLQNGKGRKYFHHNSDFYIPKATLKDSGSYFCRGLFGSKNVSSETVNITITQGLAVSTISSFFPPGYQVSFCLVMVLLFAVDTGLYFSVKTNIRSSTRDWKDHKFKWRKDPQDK

In turn, Rituxan® (antibody) returned a binding percentage (100% = total inhibition of 3G8 binding) of 18.5%.
